Reference: patent publication US9458465B2, “Compositions and methods to modulate cell membrane resealing” (RUTGERS, THE STATE UNIVERSITY OF NEW JERSEY, priority 2007, dated 2016)

Experiments:
[1] = system: Human gastric adenocarcinoma (AGS) cells; test: GFP-MG53 translocation after microelectrode or saponin damage, AGS; type: cell-based; conditions: microelectrode or 0.005% saponin
Source text: MG53 can translocate to membrane repair sites in gastric cells. Human gastric adenocarcinoma (AGS) cells were transfected with GFP-MG53 and then subjected to mechanical membrane damage by microelectrode needle penetration (top) or treatment with 0.005% saponin to permeabilize the membrane (bottom) (FIG. 45). Translocation of GFP-MG53 to the injury site (arrow) was monitored by live cell confocal microscopy.

[2] = system: mg53−/− myotubes; test: Membrane repair in transfected mg53−/− myotubes; type: cell-based, mice
Source text: The entry of FM4-64, a red-shifted variant of FM1-43, was used as an index of membrane repair capacity in mg53−/− myotubes transfected with GFP-MG53 and GFP-C242A. Following UV-bleaching of the green fluorescence, rapid translocation of GFP-MG53 took place at the injury site, whereas GFP-C242A remained static due to its defective oligomerization properties (FIG. 16E, 17A).
Similar defects with GFP-C29L were also observed in C2C12 myotubes (FIG. 18e, middle).

[3] = system: human embryonic palatal mesenchymal (HEPM) dental cells; test: GFP-MG53 translocation after microelectrode or saponin damage, HEPM; type: cell-based; conditions: microelectrode or saponin detergent
Source text: (§1) MG53 can patch the plasma membrane in many different human cell types and prevent cell death. To test if exogenous MG53 can recapitulate membrane resealing function in non-muscle cell types, we used either adenovirus or liposome-based transfection methods to express GFP-MG53 in a number of different cell types. In all cell types tested, MG53 performed in a similar fashion as that seen in muscle cells. Here we illustrate these effects in immortalized human cell lines, including HEK293 (not shown) and human embryonic palatal mesenchymal (HEPM) dental cells (FIG. 43), as well as primary cultures of human keratinocytes (FIG. 42). […] The function of MG53 appears to be essential to allow membrane patching and survival of muscle cells following injury.

[4] = system: C2C12 cells expressing GFP-MG53; test: Repair of acute membrane damage: translocation to microelectrode injury site; type: cell-based, murine; conditions: C2C12 cells; acute membrane damage
Procedure: To follow the process of intracellular vesicle translocation associated with repair of acute membrane damage, GFP-MG53 fusion protein was expressed in C2C12 myoblast cells (FIG. 21a). […]
Cell culture—The C2C12 murine myoblast cell line used for all studies was purchased from the American Type Culture Collection (Manassas, Va.). Cells were grown in a humidified environment at 37° C. and 5% CO2 in DMEM medium for C2C12 or Ham's F12 medium for CHO cells supplemented with 10% fetal bovine serum, 100 units/ml penicillin and 100 ug/ml streptomycin. In order to induce myotube differentiation, C2C12 myoblasts were grown to confluence and the medium was switched to DMEM containing 2% horse serum, penicillin (100 U/ml), streptomycin (100 μg/ml). For transient transfections, C2C12 myoblasts or CHO cells were plated at 70% confluence in glass-bottom dishes. After 24 hours, cells were transfected with plasmids described above using GeneJammer reagent (Stratagene). Cells were visualized by live cell confocal imaging at 24-48 hours after transfection or at times indicated for individual experiments. In some experiments, C2C12 myoblasts were allowed to differentiate into myotubes for the indicated time before observation.
Live cell imaging—To monitor intracellular trafficking of GFP-MG53 either CHO or C2C12 cells were cultured in glass-bottom dishes (Bioptechs Inc.) and transfected with the plasmids described above. Fluorescence images (512×512) were captured at 3.18 s/frame using a BioRad 2100 Radiance laser scanning confocal microscope with a 63×1.3NA oil immersion objective.

[5] = system: Human C38 airway epithelial cells; test: GFP-MG53 translocation after microelectrode or saponin damage, C38; type: cell-based; conditions: microelectrode or 0.005% saponin
Source text: MG53 can translocate to membrane repair sites in airway epithelial cells. Human C38 airway epithelial cells were transfected with GFP-MG53 and then subjected to mechanical membrane damage by microelectrode needle penetration (top) or treatment with 0.005% saponin to permeabilize the membrane (bottom) (FIG. 47). Translocation of GFP-MG53 to the injury site (arrow) was monitored by live cell confocal microscopy.

[6] = system: Mouse primary astrocytes; test: GFP-MG53 translocation after microelectrode or saponin damage, astrocytes; type: cell-based; conditions: microelectrode or 0.005% saponin
Source text: MG53 can translocate to membrane repair sites in neural cells. Mouse primary astrocytes were transfected with GFP-MG53 and then subjected to mechanical membrane damage by microelectrode needle penetration (top) or treatment with 0.005% saponin to permeabilize the membrane (bottom) (FIG. 46). Translocation of GFP-MG53 to the injury site (arrow) was monitored by live cell confocal microscopy.

[7] = system: Mouse leukaemic monocyte macrophage (RAW 264.7) cells; test: GFP-MG53 translocation after microelectrode or saponin damage, RAW 264.7; type: cell-based; conditions: microelectrode or 0.005% saponin
Source text: MG53 can translocate to membrane repair sites in immune cells. Mouse leukaemic monocyte macrophage (RAW 264.7) cells were transfected with GFP-MG53 and then subjected to mechanical membrane damage by microelectrode needle penetration (top) or treatment with 0.005% saponin to permeabilize the membrane (bottom) (FIG. 49). Translocation of GFP-MG53 to the injury site (arrow) was monitored by live cell confocal microscopy.

[8] = system: primary cultures of human keratinocytes; test: GFP-MG53 translocation after microelectrode or saponin damage, keratinocytes; type: cell-based; conditions: microelectrode or saponin detergent
Source text: as §1

[9] = system: HEK293 cells; test: LDH release after electroporation, HEK293; type: cell-based, human; conditions: 10 ug/mL, extracellular; various field strengths
Procedure: Genetic overexpression of MG53 can prevent membrane damage. Human embryonic kidney (HEK293) cells were transfected with RFP-MG53 or RFP and then electroporated with fields of varying strength (FIG. 32). The amount of membrane damage was measured by assessing the amount of lactate dehydrogenase (LDH) that leaks into the extracellular media out of holes in the plasma membrane produced by electroporation. The more damage that occurs to the membrane, the higher the reading on the LDH assay will be. […] Thus, expression of exogenous MG53 in non-muscle cells can increase the capacity for cell membrane repair in such non-muscle cells.
Recombinant MG53 can protect kidney cells from cell membrane damage. (a) HEK293 cells (8×10^4) were treated with 10 ug/mL recombinant human MG53 or vehicle control and then electroporated at various field strengths (FIG. 35). […] (b) MG53 or a vehicle control was added to recombinant LDH to generate standard curves for LDH activity.

[10] = system: Human IB3 airway epithelial cells; test: LDH release after glass bead damage, IB3; type: cell-based; conditions: glass beads; external protein
Procedure: External MG53 can reseal to membrane damage in airway epithelial cells. Human IB3 airway epithelial cells were treated with external recombinant human MG53 or vehicle control and then exposed to mechanical membrane damage by glass beads (FIG. 48).

[11] = system: HEPM cells; test: LDH release after LPS treatment; type: cell-based, human; conditions: LPS 1 mg/mL, 24 hours, co-incubation
Source text: Lipopolysaccarides can induce membrane damage in HEPM cells that can be prevented by exposure to MG53.

[12] = PIP2-Strip lipid dot blot; type: binding; conditions: 1 μg/ml
[13] = system: HEPM cells; test: LDH release after electroporation, HEPM; type: cell-based, human; conditions: 10 ug/mL, extracellular; various field strengths
Procedure: Recombinant MG53 can protect gum lining cells from cell membrane damage. (a) HEPM cells (5×10^4) were treated with 10 ug/mL recombinant human MG53 or vehicle control and then electroporated at various field strengths (FIG. 36). […] (b) MG53 or a vehicle control was added to recombinant LDH to generate standard curves for LDH activity.

[14] = system: Hela cervical epithelial cells; test: Resealing after glass bead damage, Hela; type: cell-based; conditions: glass beads
Source text: Effects of MG53 are specific to the function of the protein.

[15] = system: HEK293 cells; test: LDH release after glass microbead damage, HEK293; type: cell-based, human; conditions: glass microbeads
Procedure: Recombinant MG53 can protect kidney cells from mechanical cell membrane damage. HEK293 cells (8×10^4) were treated with glass microbeads to induce mechanical damage (FIG. 37). Different does of recombinant human MG53 or vehicle control was applied to the samples when glass beads were added to the media. Cells were rotated on an orbital shaker and then the supernatant was analyzed for LDH levels.
Externally applied recombinant MG53 requires phosphatidylserine (PS) binding to reseal damaged membranes. HEK293 cells were treated with recombinant human MG53 or vehicle and them damaged by shaking in the presence of glass microbeads (black bars) (FIG. 40). Membrane damage is measured by LDH release from cells that is recorded by colormetric assay recorded at 488 nm. […] Thus, MG53 must be able to bind exposed PS on damaged cells in order to facilitate membrane repair. * p<0.05
HEK293 cells were treated with recombinant human MG53 or vehicle and them damaged by shaking in the presence of glass microbeads (black bars) (FIG. 41). Membrane damage is measured by LDH release from cells that is recorded by colormetric assay recorded at 488 nm. […] Thus, MG53 must be able to bind exposed PS on damaged cells in order to facilitate membrane repair. * p<0.05

Molecule | translocation after cell membrane damage [1] | translocation to the plasma membrane following injury ([2]; primary cultured mg53−/− myotubes) | entry of FM4-64 (membrane repair capacity) ([2]; transfected mg53−/− myotubes, UV injury) | translocation after membrane damage [3] | translocation to injury site and membrane repair function of GFP fusion protein [4] | translocation after cell membrane damage [5] | translocation after cell membrane damage [6] | translocation after cell membrane damage [7] | translocation after membrane damage [8] | membrane damage (LDH) from electroporation [9] | cell membrane damage (LDH release) [10] | prevention of LPS induced damage (LDH release) [11] | lipid binding [12] | membrane damage (LDH) from electroporation [13] | membrane resealing [14] | membrane resealing ([14]; recombinant protein boiled) | saturating dose [15] | mechanical membrane damage (LDH levels) ([15]; different doses)
WT: wild type MG53 as GFP fusion protein expressed in cells (protein, left off: large carriers, wild type MG53 as GFP fusion protein expressed in cells) MSAAPGLLRQELSCPLCLQLFDAPVTAECGHSFCRACLIRVAGEPAADGTVACPCCQAPTRPQALSTNLQLSRLVEGLAQVPQGHCEEHLDPLSIYCEQDRTLVCGVCASLGSHRGHRLLPAAEAQARLKTQLPQQKMQLQEACMRKEKTVAVLEHQLVEVEETVRQFRGAVGEQLGKMRMFLAALESSLDREAERVRGDAGVALRRELSSLNSYLEQLRQMEKVLEEVADKPQTEFLMKFCLVTSRLQKILSESPPPARLDIQLPVISDDFKFQVWKKMFRALMPALEELTFDPSSAHPSLVVSSSGRRVECSDQKAPPAGEDTRQFDKAVAVVAQQLLSQGEHYWEVEVGDKPRWALGVMAADASRRGRLHAVPSQGLWLLGLRDGKILEAHVEAKEPRALRTPERPPARIGLYLSFADGVLAFYDASNPDVLTPIFSFHERLPGPVYPIFDVCWHDKGKNAQPLLLVGPEQEQA | translocation of MG53 to the plasma membrane | could translocate to the plasma membrane following injury | Significantly less entry of FM4-64 | effectively translocates to the plasma membrane | rapid accumulation | translocation of MG53 to the plasma membrane | translocation of MG53 to the plasma membrane | translocation of MG53 to the plasma membrane | effectively translocates to the plasma membrane | – | – | – | – | – | – | – | – | –
recombinant human MG53: recombinant mitsugumin53 protein, muscle-specific TRIM family protein, applied extracellularly (protein) MSAAPGLLHQELSCPLCLQLFDAPVTAECGHSFCRACLGRVAGEPAADGTVLCPCCQAPTRPQALSTNLQLARLVEGLAQVPQGHCEEHLDPLSIYCEQDRALVCGVCASLGSHRGHRLLPAAEAHARLKTQLPQQKLQLQEACMRKEKSVAVLEHQLVEVEETVRQFRGAVGEQLGKMRVFLAALEGSLDCEAERVRGEAGVALRRELGSLNSYLEQLRQMEKVLEEVADKPQTEFLMKYCLVTSRLQKILAESPPPARLDIQLPIISDDFKFQVWRKMFRALMPALEELTFDPSSAHPSLVVSSSGRRVECSEQKAPPAGEDPRQFDKAVAVVAHQQLSEGEHYWEVDVGDKPRWALGVIAAEAPRRGRLHAVPSQGLWLLGLREGKILEAHVEAKEPRALRSPERRPTRIGLYLSFGDGVLSFYDASDADALVPLFAFHERLPRPVYPFFDVCWHDKGKNAQPLLLVGPEGAEA | – | – | – | – | – | – | – | – | – | can prevent damage from electroporation | could prevent cell membrane damage due to mechanical damage | can prevent damage to HEPM cells produced by LPS | specifically binds phosphatidylserine (PS) and not other membrane lipids | can prevent damage from electroporation | effective at resealing damage | can no longer facilitate membrane resealing | ~10 µg/mL | can prevent mechanical membrane damage
